{
  "source": "patent US9744220B2",
  "about": "“Compositions and methods for treating inflammatory diseases” (priority 2013, dated 2017)",
  "molecules": {"B1": {"name": "sPDNF: N-terminal short-form of T cruzi PDNF that contains Trk-binding sites, recombinant; amino acids 1-588 of SEQ ID NO: 2; JR-100 is the commercial name (protein, listed as Trypanosoma cruzi)", "chain": "MGKTVVVASRMFWLMFFVPLLLAICPSEPAYALAPGSSRVELFKRKNSTVPFEDKAGKVTERVVHSFRLPALVNVDGVMVAIADARYDTSNDNSLIDTVAKYSVDDGETWETQIAIKNSRVSSVSRVVDPTVIVKGNKLYVLVGSYYSSRSYWSSHGDARDWDILLAVGEVTKSTAGGKITASIKWGSPVSLKKFFPAEMEGMHTNQFLGGAGVAIVASNGNLVYPVQVTNKKKQVFSKIFYSEDDGKTWKFGKGRSDFGCSEPVALEWEGKLIINTRVDWKRRLVYESSDMEKPWVEAVGTVSRVWGPSPKSNQPGSQSSFTAVTIEGMRVMLFTHPLNFKGRWLRDRLNLWLTDNQRIYNVGQVSIGDENSAYSSVLYKDDKLYCLHEINTDEVYSLVFARLVGELRIIKSVLRSWKNWDSHLSSICTPADPAASSSESGCGPAVTTVGLVGFLSGNASQNVWEDAYRCVNASTANAERVRNGLKFAGVGGGALWPVSQQGQNQRYRFANHAFTLVASVTIHEAPRAASPLLGASLDSSGGKKLLGLSYDEKHQWQPIYGSTPVTPTGSWETGKRYHLVLTMANKI"}},
  "type_in_all_cases": "in vivo",
  "key": {"MCP-1 and FKN [1]": {"system": "MCP-1 and FKN", "experiment": "IV sPDNF into TLR-deficient MyD88-/- mice, MCP-1 and FKN", "conditions": "IV 100 μg per mouse, 3 hr post-injection", "description": "Wild type C57BL/6 mice were used in the results depicted in FIGS. 11A-11D. FIG. 11A is a graph depicting that a single dose of intravenous (IV) sPDNF increased MCP-1 and FKN transcripts in the heart in a pulse-like response. Groups of mice (2 per group) were injected with vehicle (Veh) or sPDNF (150 μg/mouse) and sacrificed at 3, 6, 9 and 12 hr post-injection, and cardiac MCP-1 and FKN transcripts were quantified by qPCR. Points represent fold change of the mean±SD relative to Veh injected mice; *P<0.05 and **P<0.01. Experiment repeated three times with similar results; liver also responded with similar pulselike kinetics. FIG. 11B is a graph depicting that organ distribution of MCP-1 increased following a single IV dose of sPDNF. Experimental design analogous to that summarized above. FIG. 11C is a graph showing that a single IV dose of sPDNF augments MCP-1 and FKN transcripts dose-dependently in the heart. […] For the results depicted in FIGS. 11C and 11D, groups of three mice were injected with various doses of sPDNF, and heart and liver harvested 3 hr post-injection to quantify MCP-1 and FKN by qPCR. […]\nTo ensure that the response observed in wild type mice was not due to TLR activation, MCP-1 and FKN response to IV sPDNF was assessed in TLR-deficient MyD88^−/− mice (23)."}, "MCP-1 and FKN [2]": {"system": "MCP-1 and FKN", "experiment": "Single dose IV sPDNF into naive wild type C57BL/6 mice, MCP-1 and FKN by real time PCR", "description": "Wild type C57BL/6 mice were used in the results depicted in FIGS. 11A-11D. FIG. 11A is a graph depicting that a single dose of intravenous (IV) sPDNF increased MCP-1 and FKN transcripts in the heart in a pulse-like response. Groups of mice (2 per group) were injected with vehicle (Veh) or sPDNF (150 μg/mouse) and sacrificed at 3, 6, 9 and 12 hr post-injection, and cardiac MCP-1 and FKN transcripts were quantified by qPCR. Points represent fold change of the mean±SD relative to Veh injected mice; *P<0.05 and **P<0.01. Experiment repeated three times with similar results; liver also responded with similar pulselike kinetics. FIG. 11B is a graph depicting that organ distribution of MCP-1 increased following a single IV dose of sPDNF. Experimental design analogous to that summarized above. FIG. 11C is a graph showing that a single IV dose of sPDNF augments MCP-1 and FKN transcripts dose-dependently in the heart. FIG. 11D is a graph showing that a single IV dose of sPDNF augments MCP-1 and FKN transcripts dose-dependently in the liver. For the results depicted in FIGS. 11C and 11D, groups of three mice were injected with various doses of sPDNF, and heart and liver harvested 3 hr post-injection to quantify MCP-1 and FKN by qPCR. The results are plotted as a composite of three distinct experiments. […] For the results depicted in FIGS. 11E-11H, TLR-deficient MyD88^−/− mice (two per group) were injected IV with vehicle (PBS) or sPDNF (100 μg per mouse), sacrificed 3 hr post-injection. FIG. 11E is a graph showing MCP-1 expression in the heart of MyD88^−/− mice injected with sPDNF. FIG. 11F is a graph showing FKN expression in the heart of MyD88^−/− mice injected with sPDNF. FIG. 11G is a graph showing MCP-1 expression in the liver of MyD88^−/− mice injected with sPDNF. FIG. 11H is a graph showing FKN expression in the liver of MyD88^−/− mice injected with sPDNF.\nGroups of naive wild type C57BL/6 mice were injected with vehicle (PBS) or a single dose of IV sPDNF. Mice were sacrificed at various timepoints post-injection, and heart MCP-1 and FKN expression measured by real time PCR. […] The agonist effect of IV sPDNF was screened in various organs using optimum time response (3 hr post-injection) using the same dose as in FIG. 11A. […] Organ distribution of MCP-1 expression in response to IV sPDNF was similar to that of FKN. Without being bound to a particular theory, the selective increase of MCP-1 and FKN in various organs may reflect the uneven expression of PDNF receptors TrkA and TrkC in neural and non-neural tissues (22, 50).\nRNA was isolated from Trizol lysates of cell monolayers or liquid nitrogen snap frozen tissue samples dissociated by a Tissue-Tearor mechanical homogenizer (Biospec Products, Inc.). cDNA was synthesized using the Quantitect Reverse Transcription kit (Qiagen) according to manufacturer's instructions. Chemokine and chemokine receptor transcripts were amplified using specific primers and normalized to HPRT using SYBR Green (Qiagen), and, if needed, expressed relative to control-unstimulated cells. The following primers were used: […]\nsPDNF was diluted in sterile endotoxin-free PBS (200 μl) and injected via the tail vein into 6-8 week old female C57BL/6 mice. Mice receiving single IV injections of 150 μg sPDNF per mouse were sacrificed at 3, 6, 9, and 12 hr post-injection, or various doses of sPDNF (100 ng-150 μg) and sacrificed 3 hr post-injection. Mice receiving multiple injections of sPDNF or PBS vehicle control (0, 3, and 24 hr, 100 μg per injection) were sacrificed 24 hr after the last injection (i.e., 48 hr after the first injection). Mice were perfused with PBS and organs harvested as described above."}, "[3]": {"system": "heart of mice with chronic Chagas cardiomyopathy (CCC)", "experiment": "Chronic Chagas cardiomyopathy (CCC) mice, heart histology (H&E, Masson-Trichrome)", "conditions": "for cardiac fibrosis: IV, Masson-Trichrome", "description": "FIG. 3A depicts in vivo experimental design, groups, treatment and timeline for the infective and anti-inflammatory effects of sPDNF. C57BL/6 mice (7 per group) were injected intraperitoneally with T cruzi Colombian strain (8×10^2 per mouse) and, four months later, intravenously with PBS (vehicle) or sPDNF (1 mg/kg body weight) at 0, 3, and 24 hours, weekly for 3 weeks. Mice were sacrificed 50 days after the first set of IV sPDNF treatment. FIG. 3B are images of heart (ventricle) paraffin-embedded, sectioned, and stained with H&E. Arrows indicate foci of inflammatory infiltrates, which were abundant in sham-treated (IV PBS) CCC mice and rare in IV sPDNF-treated CCC mice. Similar histology was found in other tissue sections and in a distinct set of sPDNF-treated and PBS-sham mice.\nSame mice and experimental protocol as described in FIG. 3A were used except that paraffin-embedded heart sections were stained with Masson-Trichrome to visualize collagen in fibrotic areas (blue) and viable muscle fibers (red). FIGS. 4A and 4B display sections of atria of mice with CCC administered IV PBS or IV sPDNF, respectively. FIG. 4C is a graph showing the amount of cardiac fibrosis, as determined using ImageJ software (NIH) in four distinct sections of atria and ventricles. Relative cardiac fibrosis is defined as the ratio of blue pixels to total pixels (blue+red) normalized to corresponding areas of the heart of uninfected mice set at 1.0 (dotted line); **, P<0.01, ns, not significant relative uninfected hearts."}, "[4]": {"conditions": "single IV dose 150 μg/mouse, pulse-like kinetics"}, "[5]": {"conditions": "various single IV doses, 3 hr post-injection"}},
  "data": [
    {"molecule": "B1", "values": [
      {"measurement": "expression of FKN in the heart and liver", "setting": "MCP-1 and FKN [1]", "value": "sharp increase"},
      {"measurement": "expression of MCP-1 in the heart and liver", "setting": "MCP-1 and FKN [1]", "value": "sharp increase"},
      {"measurement": "cardiac FKN transcripts", "setting": "MCP-1 and FKN [2]; [4]", "value": "significantly increased"},
      {"measurement": "cardiac MCP-1 transcripts", "setting": "MCP-1 and FKN [2]; [4]", "value": "significantly increased"},
      {"measurement": "expression of MCP-1 in the heart, liver and spleen", "setting": "MCP-1 and FKN [2]; single IV dose, 3 hr post-injection, liver most robust", "value": "increased expression"},
      {"measurement": "time of peak of cardiac FKN", "setting": "MCP-1 and FKN [2]; single IV dose, post-injection", "value": 3, "unit": "h"},
      {"measurement": "time of peak of cardiac MCP-1", "setting": "MCP-1 and FKN [2]; single IV dose, post-injection", "value": 3, "unit": "h"},
      {"measurement": "increased expression of FKN in the heart", "setting": "MCP-1 and FKN [2]; [5]", "value": "dose-dependent"},
      {"measurement": "increased expression of MCP-1 in the heart", "setting": "MCP-1 and FKN [2]; [5]", "value": "dose-dependent"},
      {"measurement": "increased expression of MCP-1 in the liver", "setting": "MCP-1 and FKN [2]; [5]", "value": "dose-dependent"},
      {"measurement": "inflammatory infiltrates in the heart", "setting": "[3]; IV 1 mg/kg at 0, 3, 24 hours weekly for 3 weeks, 1 mg/kg", "value": "dramatic reduction and rare"},
      {"measurement": "cardiac fibrosis", "setting": "[3]", "value": "reduced"},
      {"measurement": "cardiac fibrosis", "setting": "[3]; listed as PDNF fragment", "value": "nearly eliminated"}
    ]}
  ]
}
